Results reported in patent publication US20060057696A1, “Sugar chain synthases” (priority 2002, published 2006).
Each block holds one molecule with its values, some of them ahead of it.

Key:
Format in all cases: biochemical
[1] = target: T1, PA-mST8Sia VI (mouse ST8Sia VI) (Mus musculus, UniProt Q8K4T1); assay: Sialyltransferase activity of PA-mST8Sia VI toward acceptor substrates; conditions: for Relative rate (%) Mouse ST8SiaVI: incorporation with Fetuin taken as 100, substrate 0.5 mg/ml glycolipids, 1 mg/ml glycoproteins, monosaccharides and oligosaccharides
T1 construct: amino acids 26-398 in the case of mouse ST8Sia VI; signal peptide of mouse immunoglobulin IgM (N); made in house; host or cells: COS-7 cells, transient expression of pcDSA-mST8Sia VI; protein recovered from medium on IgG-Sepharose
T1 sequence (Q8K4T1 26-398): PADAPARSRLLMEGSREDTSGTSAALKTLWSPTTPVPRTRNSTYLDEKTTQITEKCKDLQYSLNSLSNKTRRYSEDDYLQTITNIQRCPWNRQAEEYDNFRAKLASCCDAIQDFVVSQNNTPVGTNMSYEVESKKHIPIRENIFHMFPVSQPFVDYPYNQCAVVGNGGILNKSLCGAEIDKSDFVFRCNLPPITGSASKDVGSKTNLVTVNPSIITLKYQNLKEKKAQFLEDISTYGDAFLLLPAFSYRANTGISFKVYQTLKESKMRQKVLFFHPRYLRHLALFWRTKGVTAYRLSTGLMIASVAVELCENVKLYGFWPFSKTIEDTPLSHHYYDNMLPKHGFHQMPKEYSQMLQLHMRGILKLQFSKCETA
How it was run: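 Protein A-tagged mouse or human enzyme secreted from transiently transfected COS-7 cells, captured on IgG-Sepharose. Reaction at pH 6.0 (MES, MgCl2, CaCl2, Triton CF-54) with 100 μM CMP-[^14C]-NeuAc and acceptor (0.5 mg/ml glycolipids; 1 mg/ml glycoproteins/oligosaccharides), 37 °C for 3–20 h; products resolved by HPTLC or SDS-PAGE and radioactivity quantified.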

[2] = target: T2, PA-mST8Sia VI (Mus musculus, UniProt Q8K4T1); assay: N-glycanase treatment of Fetuin sialylated with [14C]-NeuAc by PA-mST8Sia VI; conditions: sialylated by PA-mST8Sia VI with [14C]-NeuAc; shows incorporation into O-glycans
T2 construct: amino acids 26-398 in the case of mouse ST8Sia VI; signal peptide of mouse immunoglobulin IgM (N); made in house; host or cells: COS-7 cells, transient expression of pcDSA-mST8Sia VI; protein recovered from medium on IgG-Sepharose
T2 sequence (Q8K4T1 26-398): T1 sequence (Q8K4T1 26-398)
Procedure: (§1) In FIG. 4, Fetuin was [^14C]-NeuAc-incorporated by ST8Sia III or ST8Sia VI and then treated with N-glycanase. The [^14C]-NeuAc-incorporated Fetuin was treated with N-glycanase, and the treated product was analyzed by SDS-PAGE. Thereafter, it was visualized with a BAS2000 radio image analyzer.
(§2) It was found by an N-glycanase treatment that when Fetuin was used as a substrate, the majority of sialic acid, which was newly introduced by PA-mST8Sia VI, was incorporated into O-glycans (FIG. 4). That is, when Fetuin was sialylated by PA-mST8Sia VI with [^14C]-NeuAc, and the sialylated product was then treated with N-glycanase, which releases N-glycans from a peptide portion. The majority (82.7%) of radioactivity was still kept in the Fetuin after this treatment. […] On the other hand, the same experiment was carried out using mouse ST8Sia III, which used N-glycans of Fetuin as substrates.

[3] = target: T3, mouse ST8Sia III (Mus musculus, UniProt Q64689); assay: N-glycanase treatment of Fetuin sialylated with [14C]-NeuAc by mouse ST8Sia III
T3 sequence (Q64689 1-380): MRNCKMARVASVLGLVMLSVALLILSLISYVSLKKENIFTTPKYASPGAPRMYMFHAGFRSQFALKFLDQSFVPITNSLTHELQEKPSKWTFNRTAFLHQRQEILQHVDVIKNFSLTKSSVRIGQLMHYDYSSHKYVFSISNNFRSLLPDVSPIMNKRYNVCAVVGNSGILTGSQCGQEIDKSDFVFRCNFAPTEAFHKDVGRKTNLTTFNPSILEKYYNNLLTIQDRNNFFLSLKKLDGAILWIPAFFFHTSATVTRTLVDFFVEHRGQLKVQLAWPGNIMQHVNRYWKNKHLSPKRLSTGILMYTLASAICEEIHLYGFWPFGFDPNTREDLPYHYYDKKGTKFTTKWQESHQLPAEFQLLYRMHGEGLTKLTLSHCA
Procedure: as §1, §2

- Relative rate (%) Mouse ST8SiaVI [1]: 0%
Molecule: Asialo- α1-Acid glycoprotein: desialylated α1-acid glycoprotein prepared at 80° C. for 1 hour in 0.02 N HCl

- Relative rate (%) Mouse ST8SiaVI [1]: 0%
Molecule: Galβ1,3GalNAcβ1,4(NeuAcα2,3)Galβ1,4Glcβ1-Cer [GM1a]

- Relative rate (%) Mouse ST8SiaVI [1]: 0%
Molecule: Galβ1,4Glcβ1-Cer [Lactosylceramide]

- activity of PA-mST8Sia VI on the substrate (in words) [1]: showed activity
- Relative rate (%) Mouse ST8SiaVI [1]: 6.2%
B1: Ovomucoid: glycoprotein acceptor substrate which contains only N-glycans (protein, UniProt P01005 25-210, looked up)
Ovomucoid: AEVDCSRFPNATDKEGKDVLVCNKDLRPICGTDGVTYTNDCLLCAYSIEFGTNISKEHDGECKETVPMNCSSYANTTSEDGKVMVLCNRAFNPVCGTDGVTYDNECLLCAHKVEQGASVDKRHDGGCRKELAAVSVDCSEYPKPDCTAEDRPLCGSDNKTYGNKCNFCNAVVESNGTLTLSHFGKC

More lines, now with the values behind:

Molecule: Asialofetuin: asialo glycoprotein acceptor substrate purchased from Sigma
- Relative rate (%) Mouse ST8SiaVI [1]: 0%

Molecule: Fetuin: glycoprotein acceptor substrate containing both O-glycans and N-glycans, purchased from Sigma
- activity of PA-mST8Sia VI on the substrate (in words) [1]: showed activity
- Relative rate (%) Mouse ST8SiaVI [1]: 100%
- radioactivity still kept in the Fetuin after N-glycanase treatment [2]: 82.7%
- radioactivity in Fetuin after N-glycanase treatment (in words) [3]: completely disappeared

Molecule: NeuAcα2,3Galβ1,4Glcβ1-Cer [GM3]
- Km [1]: 500 µM
- Vmax value [1]: 0.67 pmol/h/ml enzyme solution
- activity of PA-mST8Sia VI on the substrate (in words) [1]: showed activity
- Relative rate (%) Mouse ST8SiaVI [1]: 13.0%

Molecule: α1-Acid glycoprotein: glycoprotein acceptor substrate purchased from Sigma
- Relative rate (%) Mouse ST8SiaVI [1]: 0%

B2: Asialoovomucoid: desialylated ovomucoid prepared at 80° C. for 1 hour in 0.02 N HCl (protein, UniProt P01005 25-210, looked up)
Ovomucoid: B1 Ovomucoid
modifications: desialylated
notes: desialylated ovomucoid prepared at 80° C. for 1 hour in 0.02 N HCl
- Relative rate (%) Mouse ST8SiaVI [1]: 0%
